Laboratory results taken from US20220120736A1, “METHODS AND ASSAYS FOR MODULATING GENE TRANSCRIPTION BY MODULATING CONDENSATES” (Whitehead Institute for Biomedical Research, priority 2018, published 2022).

Tested on: WNT-responsive reporter gene
Assay: Luciferase assay with synthetic WNT-reporter (10 copies of TCF/LEF motif)
Assay type: cell-based
Settings: overexpression in HEK293T cells
Protocol: (FIG. 56A) Schematic of the ChIP experiment. TdTomato-tagged wild type or aromatic mutant β-catenin were stably integrated in mES cells under a doxycycline-inducible promoter. Doxycycline was added to the media 24 hours prior to crosslinking. ChIP was preformed using antibodies against TdTomato. TRE=Tetracycline responsive element. (FIG. 56B) (Top) ChIP-qPCR of ectopically-expressed wild type or aromatic mutant β-catenin at Myc, Sp5, and Klf4 enhancers. Error bars indicate standard deviation of three replicates. Stars indicate p-values obtained by a t-test <0.05. (Bottom) RT-qPCR of mRNA levels after ectopic expression of wild type or aromatic mutant β-catenin of Myc, Sp5, and Klf4. Error bars indicate standard deviation of three replicates. Stars indicate p-values obtained by a t-test <0.05. (FIG. 56C) Luciferase assay using a synthetic WNT-reporter containing 10 copies of the consensus TCF/LEF motif were wild type or aromatic mutant β-catenin was overexpressed in HEK293T cells. Average of 3 biological replicates is shown. Error bars show the standard deviation. Star indicates p-value obtained by a t-test <0.05.
We independently tested the ability of the β-catenin aromatic mutant to transactivate a WNT-responsive reporter gene in a luciferase assay with wild type and mutant forms of β-catenin (FIG. 56C).

increase in luciferase activity: 8 fold
B1: wild type β-catenin: wild type β-catenin overexpressed in HEK293T cells (protein, UniProt P35222 2-781, looked up)
Catenin beta-1: ATQADLMELDMAMEPDRKAAVSHWQQQSYLDSGIHSGATTTAPSLSGKGNPEEEDVDTSQVLYEWEQGFSQSFTQEQVADIDGQYAMTRAQRVRAAMFPETLDEGMQIPSTQFDAAHPTNVQRLAEPSQMLKHAVVNLINYQDDAELATRAIPELTKLLNDEDQVVVNKAAVMVHQLSKKEASRHAIMRSPQMVSAIVRTMQNTNDVETARCTAGTLHNLSHHREGLLAIFKSGGIPALVKMLGSPVDSVLFYAITTLHNLLLHQEGAKMAVRLAGGLQKMVALLNKTNVKFLAITTDCLQILAYGNQESKLIILASGGPQALVNIMRTYTYEKLLWTTSRVLKVLSVCSSNKPAIVEAGGMQALGLHLTDPSQRLVQNCLWTLRNLSDAATKQEGMEGLLGTLVQLLGSDDINVVTCAAGILSNLTCNNYKNKMMVCQVGGIEALVRTVLRAGDREDITEPAICALRHLTSRHQEAEMAQNAVRLHYGLPVVVKLLHPPSHWPLIKATVGLIRNLALCPANHAPLREQGAIPRLVQLLVRAHQDTQRRTSMGGTQQQFVEGVRMEEIVEGCTGALHILARDVHNRIVIRGLNTIPLFVQLLYSPIENIQRVAAGVLCELAQDKEAAEAIEAEGATAPLTELLHSRNEGVATYAAAVLFRMSEDKPQDYKKRLSVELTSSLFRTEPMAWNETADLGLDIGAQGEPLGYRQDDPSYRSFHSGGYGQDALGMDPMMEHEMGGHHPGADYPVDGLPDLGHAQDLMDGLPPGDSNQLAWFDTDL
